Reference: patent publication US20240369575A1 (Genentech, published 2024)
Where two headings read alike, the source gives them in different places.

Key:
[1] = target: RIP3; assay: IP from HT29 WT or RIP1 KO cells with or without TBZ; western blot RIP3
[2] = target: T1, XIAP (UniProt P98170 1-497); assay: IP from THP1 cells with or without MDP (1 ug/ml, 30 min), 6 M urea lysis; western blot XIAP
Procedure: (§1) THP1 cells were treated with PBS or MDP (1 μg/ml, 30 min). Cells were lysed in 6M urea buffer and immunoprecipitated using indicated RIP2-ubiquitin, K63-linear ubiquitin chain bispecific or control antibodies.

[3] = target: T2, c-IAP1 (UniProt Q13490 1-618); assay: IP from THP1 cells with or without MDP (1 ug/ml, 30 min), 6 M urea lysis; western blot c-IAP1
Procedure: as §1

[4] = target: T3, RIP1; assay: IP with K63-Lin from THP1 cells treated with PBS, TNF, MDP or LPS, 6 M urea lysis; western blot RIP1
T3 construct: also called non-ubiquitinated RIP1 (endogenous, human cell lines); RIPK1
T3 single chain: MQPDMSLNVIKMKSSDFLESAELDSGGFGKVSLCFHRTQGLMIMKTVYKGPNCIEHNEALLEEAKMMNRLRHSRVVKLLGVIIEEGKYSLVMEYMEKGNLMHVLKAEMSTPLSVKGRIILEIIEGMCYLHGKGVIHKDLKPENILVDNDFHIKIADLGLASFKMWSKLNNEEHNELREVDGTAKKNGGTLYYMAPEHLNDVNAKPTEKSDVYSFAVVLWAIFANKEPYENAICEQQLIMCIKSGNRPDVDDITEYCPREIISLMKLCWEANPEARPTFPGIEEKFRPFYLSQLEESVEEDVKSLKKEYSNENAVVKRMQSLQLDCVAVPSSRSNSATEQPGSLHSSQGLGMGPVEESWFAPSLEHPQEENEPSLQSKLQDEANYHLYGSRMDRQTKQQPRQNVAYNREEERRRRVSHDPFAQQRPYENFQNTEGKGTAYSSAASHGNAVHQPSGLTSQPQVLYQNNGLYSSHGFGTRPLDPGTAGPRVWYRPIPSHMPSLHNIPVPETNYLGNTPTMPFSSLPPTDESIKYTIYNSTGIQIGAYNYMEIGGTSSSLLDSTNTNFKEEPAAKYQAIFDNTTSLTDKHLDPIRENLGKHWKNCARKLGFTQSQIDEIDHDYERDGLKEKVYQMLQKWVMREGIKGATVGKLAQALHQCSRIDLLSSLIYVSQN

[5] = target: T1, XIAP; assay: immunoprecipitation from MDP-treated THP1 lysates in 6 M urea buffer, western blot
Procedure: as §1

[6] = target: T2, c-IAP1; assay: as above
Procedure: as §1

[7] = target: T4, RIP2 (Homo sapiens (Human), UniProt O43353 1-540); assay: immunoprecipitation from cell lysates in 6 M urea buffer, western blot
T4 construct: also called RIPK2

[8] = target: T5, TRAF2 (UniProt Q12933 2-501); assay: as above
T5 sequence (looked up): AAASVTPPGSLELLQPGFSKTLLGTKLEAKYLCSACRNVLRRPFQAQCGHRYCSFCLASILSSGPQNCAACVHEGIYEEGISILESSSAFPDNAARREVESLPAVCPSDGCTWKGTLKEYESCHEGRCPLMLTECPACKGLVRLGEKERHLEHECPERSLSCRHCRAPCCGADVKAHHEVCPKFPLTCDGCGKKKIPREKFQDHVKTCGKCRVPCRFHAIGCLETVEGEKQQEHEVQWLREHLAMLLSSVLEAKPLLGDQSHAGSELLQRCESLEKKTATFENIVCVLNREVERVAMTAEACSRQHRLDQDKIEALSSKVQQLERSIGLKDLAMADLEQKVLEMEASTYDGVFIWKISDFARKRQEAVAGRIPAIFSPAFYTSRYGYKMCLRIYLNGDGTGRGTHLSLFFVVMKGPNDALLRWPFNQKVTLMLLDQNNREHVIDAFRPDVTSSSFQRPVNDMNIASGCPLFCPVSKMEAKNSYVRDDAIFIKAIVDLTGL

[9] = target: RIP3; assay: IP from HT29 WT or RIP1 KO cells with or without TBZ; western blot RIP3; remark: listed apart in the source
[10] = target: T6, RIP2 modified by mixed and/or branched K63-linked and linear ubiquitin chains (UniProt P0CG48 1-76); assay: IP from THP1 cells untreated or treated with MDP (1 ug/ml, 30 min), 6 M urea lysis; western blot RIP2
T6 construct: mature; also called modified RIP2; K63- and linear chain-ubiquitinated RIP2

[11] = target: T2, c-IAP1; assay: IP from THP1 cells with or without MDP (1 ug/ml, 30 min), 6 M urea lysis; western blot c-IAP1; remark: listed apart in the source
[12] = target: T1, XIAP; assay: IP from THP1 cells with or without MDP (1 ug/ml, 30 min), 6 M urea lysis; western blot XIAP (label cut to XIA on the sheet)

Measured: binding result

T1 sequence (P98170 whole entry): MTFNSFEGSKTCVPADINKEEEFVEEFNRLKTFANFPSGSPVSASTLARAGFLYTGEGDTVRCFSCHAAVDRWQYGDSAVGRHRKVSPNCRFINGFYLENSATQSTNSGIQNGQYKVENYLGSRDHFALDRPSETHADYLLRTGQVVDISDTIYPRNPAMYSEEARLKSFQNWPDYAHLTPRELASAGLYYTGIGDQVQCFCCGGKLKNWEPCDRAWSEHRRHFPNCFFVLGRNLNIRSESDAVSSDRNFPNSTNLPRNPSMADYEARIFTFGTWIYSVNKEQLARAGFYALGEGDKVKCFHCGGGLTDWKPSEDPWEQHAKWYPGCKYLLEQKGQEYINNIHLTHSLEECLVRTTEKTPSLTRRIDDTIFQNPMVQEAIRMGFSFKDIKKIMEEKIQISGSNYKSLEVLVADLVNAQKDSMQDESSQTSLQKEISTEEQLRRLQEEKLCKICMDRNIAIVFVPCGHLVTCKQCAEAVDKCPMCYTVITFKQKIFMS
Chain of RIP3 (chain, as listed by the source limits assumed): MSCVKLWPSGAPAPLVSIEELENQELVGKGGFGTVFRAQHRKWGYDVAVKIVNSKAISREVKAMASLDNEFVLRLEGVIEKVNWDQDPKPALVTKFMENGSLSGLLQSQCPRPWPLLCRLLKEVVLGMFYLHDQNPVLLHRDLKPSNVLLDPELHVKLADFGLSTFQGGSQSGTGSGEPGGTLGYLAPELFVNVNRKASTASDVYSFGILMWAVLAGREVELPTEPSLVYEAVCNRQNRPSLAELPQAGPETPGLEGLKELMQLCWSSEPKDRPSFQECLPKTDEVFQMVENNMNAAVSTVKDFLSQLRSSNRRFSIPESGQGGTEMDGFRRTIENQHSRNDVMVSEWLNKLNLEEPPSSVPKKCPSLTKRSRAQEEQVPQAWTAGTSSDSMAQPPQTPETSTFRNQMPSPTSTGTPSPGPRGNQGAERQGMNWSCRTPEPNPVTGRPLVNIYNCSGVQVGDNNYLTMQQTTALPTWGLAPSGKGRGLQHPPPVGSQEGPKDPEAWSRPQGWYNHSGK
T2 sequence (Q13490 whole entry): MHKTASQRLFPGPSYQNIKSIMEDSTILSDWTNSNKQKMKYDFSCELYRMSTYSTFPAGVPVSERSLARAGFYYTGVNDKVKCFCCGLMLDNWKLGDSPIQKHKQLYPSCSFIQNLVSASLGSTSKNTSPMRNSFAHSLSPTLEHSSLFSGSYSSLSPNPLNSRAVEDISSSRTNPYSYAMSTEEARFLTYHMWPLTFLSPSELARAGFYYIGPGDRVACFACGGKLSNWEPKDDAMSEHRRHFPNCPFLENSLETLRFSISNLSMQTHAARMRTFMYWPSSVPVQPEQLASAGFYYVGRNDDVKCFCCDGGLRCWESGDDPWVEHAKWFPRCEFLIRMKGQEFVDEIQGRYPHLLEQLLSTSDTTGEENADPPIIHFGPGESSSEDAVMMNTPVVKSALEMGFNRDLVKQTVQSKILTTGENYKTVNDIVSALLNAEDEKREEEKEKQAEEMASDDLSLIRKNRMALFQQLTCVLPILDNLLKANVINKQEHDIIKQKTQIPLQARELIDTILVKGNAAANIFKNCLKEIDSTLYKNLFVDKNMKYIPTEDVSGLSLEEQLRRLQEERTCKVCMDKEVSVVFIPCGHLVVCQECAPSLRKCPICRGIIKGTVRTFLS
T4 sequence (O43353 whole entry): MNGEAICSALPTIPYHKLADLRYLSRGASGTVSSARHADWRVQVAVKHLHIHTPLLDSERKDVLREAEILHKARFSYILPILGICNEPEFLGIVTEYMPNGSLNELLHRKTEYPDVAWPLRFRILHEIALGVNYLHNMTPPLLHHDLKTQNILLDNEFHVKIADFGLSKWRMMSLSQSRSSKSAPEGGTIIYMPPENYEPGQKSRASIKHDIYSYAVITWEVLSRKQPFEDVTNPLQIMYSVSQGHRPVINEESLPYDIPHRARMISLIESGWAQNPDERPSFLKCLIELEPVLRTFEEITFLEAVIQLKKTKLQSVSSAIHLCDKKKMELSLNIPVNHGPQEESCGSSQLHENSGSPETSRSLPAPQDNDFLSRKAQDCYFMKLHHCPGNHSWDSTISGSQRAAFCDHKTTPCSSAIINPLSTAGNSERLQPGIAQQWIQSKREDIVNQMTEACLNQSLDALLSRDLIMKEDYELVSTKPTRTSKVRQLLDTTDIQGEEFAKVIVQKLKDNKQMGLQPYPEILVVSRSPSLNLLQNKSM
T6 sequence (chain, as listed by the source limits assumed, chain 1 of 2, other chains not shown): as the sequence (O43353 whole entry) above

B1: anti-M1/anti-K63 bispecific antibody (bispecific antibody, V domains shown)
VH 1: EVQLVESGGGLVQPGGSLRLSCAASGFNVKTGLIHWVRQAPGKGLEWVAYITPYYGSTSYADSVKGRFTISADTSKNTAYLQMNSLRAEDTAVYYCAREYYRWYTAIDYWGQGTLVTVSS
VL 1: DIQMTQSPSSLSASVGDRVTITCRASQSVSSAVAWYQQKPGEAPKLLIYSARSLYSGVPSRFSGSRSGTDFTLTISSLQPEDFATYYCQQYSSYSSLFTFGQGTKVEIK
VH 2: EVQLVESGGGLVQPGGSLRLSCAASGFTFSNTYISWVRQAPGKGLEWVASITPSSGQTDYADSVKGRFTISADTSKNTAYLQMNSLRAEDTAVYYCARTWLLRWVMDLWGQGTLVTVSS
VL 2: DIQMTQSPSSLSASVGDRVTITCRASQDVSTAVAWYQQKPGKAPKLLIYSAKFLYSGVPSRFSGSGSGTDFTLTISSLQPEDFATYYCQQSYTTPPTFGQGTKVEIK
notes: also called K63-Lin; K63-linear ubiquitin chain bispecific antibody
no binding: [1] | [2] | [3] | [4]

B2: anti-RIP2/anti-M1 bispecific antibody (bispecific antibody, human IgG1, kappa)
heavy 1: not shown
light 1: DIQMTQSPSSLSASVGDRVTITCRASQDVSTAVAWYQQKPGKAPKLLIYSAKFLYSGVPSRFSGSGSGTDFTLTISSLQPEDFATYYCQQSYTTPPTFGQGTKVEIKRTVAAPSVFIFPPSDEQLKSGTASVVCLLNNFYPREAKVQWKVDNALQSGNSQESVTEQDSKDSTYSLSSTLTLSKADYEKHKVYACEVTHQGLSSPVTKSFNRGEC
heavy 2: not shown
light 2: not shown
notes: also called RIP2-Lin
no binding: [5] | [6]

B3: anti-RIP1/anti-K63 bispecific antibody (bispecific antibody, human IgG1, kappa)
heavy 1: not shown
light 1: DIQMTQSPSSLSASVGDRVTITCRASQSVSSAVAWYQQKPGEAPKLLIYSARSLYSGVPSRFSGSRSGTDFTLTISSLQPEDFATYYCQQYSSYSSLFTFGQGTKVEIKRTVAAPSVFIFPPSDEQLKSGTASVVCLLNNFYPREAKVQWKVDNALQSGNSQESVTEQDSKDSTYSLSSTLTLSKADYEKHKVYACEVTHQGLSSPVTKSFNRGEC
heavy 2: not shown
light 2: NIMMTQSPSSLAVSAGQKVTMNCKSSQNVIYTSNQRNYLAWYQQKPGQSPKLLIYWASTRVSGVPDRFTGSGSGTDFTLTISSVEVEDLAVYYCHQYLSSWTFGGGTKVEIKRTVAAPSVFIFPPSDEQLKSGTASVVCLLNNFYPREAKVQWKVDNALQSGNSQESVTEQDSKDSTYSLSSTLTLSKADYEKHKVYACEVTHQGLSSPVTKSFNRGEC
notes: also called RIP1-K63; RIP1-K63 ubiquitin chain bispecific antibody
no binding: [7] | [8] | [9] | [10]

B4: anti-RIP1/anti-M1 bispecific antibody (bispecific antibody, human IgG1, kappa)
heavy 1: not shown
light 1: DIQMTQSPSSLSASVGDRVTITCRASQDVSTAVAWYQQKPGKAPKLLIYSAKFLYSGVPSRFSGSGSGTDFTLTISSLQPEDFATYYCQQSYTTPPTFGQGTKVEIKRTVAAPSVFIFPPSDEQLKSGTASVVCLLNNFYPREAKVQWKVDNALQSGNSQESVTEQDSKDSTYSLSSTLTLSKADYEKHKVYACEVTHQGLSSPVTKSFNRGEC
heavy 2: not shown
light 2: NIMMTQSPSSLAVSAGQKVTMNCKSSQNVIYTSNQRNYLAWYQQKPGQSPKLLIYWASTRVSGVPDRFTGSGSGTDFTLTISSVEVEDLAVYYCHQYLSSWTFGGGTKVEIKRTVAAPSVFIFPPSDEQLKSGTASVVCLLNNFYPREAKVQWKVDNALQSGNSQESVTEQDSKDSTYSLSSTLTLSKADYEKHKVYACEVTHQGLSSPVTKSFNRGEC
notes: also called RIP1-Lin; RIP1-Lin ubiquitin chain bispecific antibody
no binding: [7] | [8] | [1]

B5: anti-RIP2/anti-K63 bispecific antibody (bispecific antibody, human IgG1, kappa)
heavy 1: not shown
light 1: DIQMTQSPSSLSASVGDRVTITCRASQSVSSAVAWYQQKPGEAPKLLIYSARSLYSGVPSRFSGSRSGTDFTLTISSLQPEDFATYYCQQYSSYSSLFTFGQGTKVEIKRTVAAPSVFIFPPSDEQLKSGTASVVCLLNNFYPREAKVQWKVDNALQSGNSQESVTEQDSKDSTYSLSSTLTLSKADYEKHKVYACEVTHQGLSSPVTKSFNRGEC
heavy 2: not shown
light 2: not shown
notes: also called RIP2-K63
no binding: [11] | [12]
